The assay concerns the target T1, human CD3 (human, UniProt P07766 23-207; P04234 22-171).
T1 construct: also called CD3 on human T cells
Briefly: flow cytometry on primary human T cells.

T1 sequence (P07766 23-207 limits assumed, chain 1 of 2): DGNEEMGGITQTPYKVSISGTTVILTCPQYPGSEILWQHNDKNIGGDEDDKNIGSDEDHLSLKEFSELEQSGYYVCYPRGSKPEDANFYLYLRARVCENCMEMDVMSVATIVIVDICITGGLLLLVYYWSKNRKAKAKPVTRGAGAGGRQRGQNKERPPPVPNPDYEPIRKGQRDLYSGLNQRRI
T1 sequence (P04234 22-171 limits assumed, chain 2 of 2): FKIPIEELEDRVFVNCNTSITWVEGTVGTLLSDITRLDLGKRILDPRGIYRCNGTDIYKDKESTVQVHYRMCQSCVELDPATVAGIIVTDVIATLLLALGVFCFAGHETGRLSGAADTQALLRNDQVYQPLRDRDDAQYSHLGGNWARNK

B1: mAb CD3 F2B (antibody, V domains shown)
VH: EVQLVESGGGLVQPGRSLRLSCAASGFTFDDYAMHWVRQAPGKGLEWVSGISWNSGSIGYADSVKGRFTISRDNAKNSLYLQMNSLRAEDTALYYCAKDSRGYGDYRLGGAYWGQGTLVTVSS
VL: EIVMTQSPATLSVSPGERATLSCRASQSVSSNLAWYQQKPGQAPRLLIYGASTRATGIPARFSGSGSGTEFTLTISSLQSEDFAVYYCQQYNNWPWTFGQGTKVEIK
notes: also called F2B antibody; mAb F2B
For the molecule B1, the binding result is “binds”.

B2: SEQ ID NO 5 (antibody, V domains shown)
VH: EVQLVESGGGLVQPGRSLRLSCAASGFTFDDYAMHWVRQAPGKGLEWVSGISWNSGSIGYADSVKGRFTISRDNAKNSLYLQMNSLRAEDTALYYCAKDSRGYGDYSLGGAYWGQGTLVTVSS
VL: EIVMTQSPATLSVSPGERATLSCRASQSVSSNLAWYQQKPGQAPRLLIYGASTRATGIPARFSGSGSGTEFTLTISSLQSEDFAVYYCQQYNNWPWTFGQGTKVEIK
notes: also called family 2 anti-CD3 FlicAb
In the case of B2, the binding result is reported as “binds”.

B3: SEQ ID NO 3 (antibody, V domains shown)
VH: EVQLVESGGGLVQPGRSLRLSCAASGFTFDDYAMHWVRQAPGKGLEWVSGISWNSGSIGYADSVKGRFTISRDNAKKSLYLQMNSLRAEDTALYYCAKDSRGYGDYSRGGAYWGQGTLVTVSS
VL: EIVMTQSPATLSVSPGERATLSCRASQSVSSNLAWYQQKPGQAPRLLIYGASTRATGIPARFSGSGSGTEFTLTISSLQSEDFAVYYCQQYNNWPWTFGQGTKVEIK
notes: as for B2
B3: the binding result is “binds”.

B4: SEQ ID NO 11 (antibody, V domains shown)
VH: EVQLVESGGGLVQPGRSLRLSCAASGFTFDDYAMHWVRQAPGKGLEWVSGISWNSGSIGYADSVKGRFTISRDNAKNSLYLQMNSLRAEDTALYYCAKDSRGYGDYSRGGAYWGQGTLVTVSS
VL: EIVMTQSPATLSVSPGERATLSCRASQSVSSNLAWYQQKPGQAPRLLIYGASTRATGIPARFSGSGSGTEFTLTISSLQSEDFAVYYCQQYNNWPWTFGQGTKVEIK
notes: as for B2
B4: the binding result is recorded as “binds”.

B5: SEQ ID NO 15 (antibody, V domains shown)
VH: EVQLVESGGGLVQPGRSLRLSCAASGFTFDNYAMHWVRQAPGKGLEWVSGISWNSGSIGYADSVKGRFTISRDNAKKSLYLQMNSLRAEDTALYYCAKDSRGYGDYSLGGAYWGQGTLVTVSS
VL: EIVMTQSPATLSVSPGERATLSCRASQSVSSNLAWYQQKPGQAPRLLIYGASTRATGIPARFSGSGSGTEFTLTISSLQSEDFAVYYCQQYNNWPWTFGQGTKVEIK
notes: as for B2
For B5, the binding result was “binds”.

B6: SEQ ID NO 9 (antibody, V domains shown)
VH: EVQLVESGGGLVQPGRSLRLSCAASGFTFDNYAMHWVRQAPGKGLEWVSGISWNSGSIGYADSVKGRFTISRDNAKKSLYLQMNSLRAEDTALYYCAKDSRGYGDYSRGGAYWGQGTLVTVSS
VL: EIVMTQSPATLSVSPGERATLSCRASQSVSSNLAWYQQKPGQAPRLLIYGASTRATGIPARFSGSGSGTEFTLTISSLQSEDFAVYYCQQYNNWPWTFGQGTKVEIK
notes: as for B2
As to B6, the binding result was “binds”.

B7: SEQ ID NO 12 (antibody, V domains shown)
VH: EVQLVESGGGLVQPGRSLRLSCAASGFTFDDYAMHWVRQAPGKGLEWVSGISWNSGSIGYADSVKGRFTISRDNAKNSLYLQMNSLRPEDTALYYCAKDSRGYGSYSRGGAYWGQGTLVTVSS
VL: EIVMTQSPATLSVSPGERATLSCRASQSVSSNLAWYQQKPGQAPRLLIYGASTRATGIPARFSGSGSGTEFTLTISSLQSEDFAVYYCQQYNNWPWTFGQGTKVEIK
notes: as for B2
With B7, the binding result is “binds”.

B8: SEQ ID NO 4 (antibody, V domains shown)
VH: EVQLVESGGGLVQPGRSLRLSCAASGFTFDDYAMHWVRQAPGKGLEWVSGISWNSGSIGYADSVKGRFTISRDNAKNSLYLQMNSLRPEDTALYYCAKDSRGYGDYSLGGAYWGQGTLVTVSS
VL: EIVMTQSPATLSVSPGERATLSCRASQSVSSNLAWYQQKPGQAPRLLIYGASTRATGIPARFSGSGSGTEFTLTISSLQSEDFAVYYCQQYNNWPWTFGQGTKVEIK
notes: as for B2
With B8, the binding result is “binds”.

B9: SEQ ID NO 10 (antibody, V domains shown)
VH: EVQLVESGGGLVQPGRSLRLSCAASGFTFDNYAMHWVRQAPGKGLEWVSGISWNSGSIGYADSVKGRFTISRDNAKNSLYLQMNSLRAEDTALYYCAKDSRGYGDYSRGGAYWGQGTLVTVSS
VL: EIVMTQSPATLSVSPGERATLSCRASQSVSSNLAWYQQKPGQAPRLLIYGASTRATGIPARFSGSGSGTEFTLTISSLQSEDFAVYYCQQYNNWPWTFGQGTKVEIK
notes: as for B2
With B9, the binding result was “binds”.

B10: SEQ ID NO 18 (antibody, V domains shown)
VH: EVQLVESGGGLVQPGRSLRLSCAASGFTFDDYAMHWVRQAPGKGLEWVSGISWNSGSIGYADSVKGRFTISRDNAKNSLYLQMNSLRPEDTALYYCAKDSRGYGDYRLGGAYWGQGTLVTVSS
VL: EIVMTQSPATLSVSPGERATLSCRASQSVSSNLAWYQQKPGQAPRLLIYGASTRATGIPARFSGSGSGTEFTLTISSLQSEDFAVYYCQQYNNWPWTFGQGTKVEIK
notes: as for B2
Consider B10, for which the binding result was “binds”.

B11: SEQ ID NO 16 (antibody, V domains shown)
VH: EVQLVESGGGLVQPGRSLRLSCAASGFTFDDYAMHWVRQAPGKGLEWVSGISWNSGSIGYADSVKGRFTISRDNAKKSLYLQMNSLRAEDTALYYCAKDSRGYGDYRLGGAYWGQGTLVTVSS
VL: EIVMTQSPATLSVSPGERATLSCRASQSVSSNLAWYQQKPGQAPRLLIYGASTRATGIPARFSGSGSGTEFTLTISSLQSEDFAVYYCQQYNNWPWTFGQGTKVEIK
notes: as for B2
With B11, the binding result is “binds”.

B12: SEQ ID NO 2 (antibody, V domains shown)
VH: EVQLVESGGGLVKPGGSLRLSCAASGFTFDDYAMHWVRQAPGKGLEWVSGISWNSGSIGYADSVKGRFTISRDNAKNSLYLQMNSLRAEDTALYYCAKDSRGYGDYRLGGAYWGQGTLVTVSS
VL: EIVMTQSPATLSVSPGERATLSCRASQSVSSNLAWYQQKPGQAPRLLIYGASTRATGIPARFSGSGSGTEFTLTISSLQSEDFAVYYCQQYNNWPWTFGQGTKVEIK
notes: as for B2
B12: the binding result is listed as “binds”.

B13: SEQ ID NO 13 (antibody, V domains shown)
VH: EVQLVESGGGLVQPGRSLRLSCAASGFTFHNYAMHWVRQAPGKGLEWVSGISWNSGSIGYADSVKGRFTISRDNAKNSLYLQMNSLRAEDTALYYCAKDSRGYGDYSLGGAYWGQGTLVTVSS
VL: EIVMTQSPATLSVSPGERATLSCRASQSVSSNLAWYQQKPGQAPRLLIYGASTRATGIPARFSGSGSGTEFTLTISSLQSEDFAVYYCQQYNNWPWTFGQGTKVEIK
notes: as for B2
On to B13, for which the binding result is “binds”.

B14: SEQ ID NO 17 (antibody, V domains shown)
VH: EVQLVESGGGLVQPGRSLRLSCEASGFTFDDYAMHWVRQAPGKGLEWVSGISWNSGSIGYADSVKGRFTISRDNAKNSLYLQMNSLRAEDTALYYCAKDSRGYGDYRLGGAYWGQGTLVTVSS
VL: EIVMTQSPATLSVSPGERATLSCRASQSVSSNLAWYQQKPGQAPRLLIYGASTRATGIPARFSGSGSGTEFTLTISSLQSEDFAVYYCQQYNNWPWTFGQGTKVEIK
notes: as for B2
With B14, the binding result was “binds”.

B15: SEQ ID NO 6 (antibody, V domains shown)
VH: EVQLVESGGGLVQPGRSLRLSCAASGFTFANYAMHWVRQAPGKGLEWVSGISWNSGSIDYADSVKGRFTISRDNAKNSLYLQMNSLRAEDTALYYCAKDSRGYGDYSRGGAYWGQGTLVTVSS
VL: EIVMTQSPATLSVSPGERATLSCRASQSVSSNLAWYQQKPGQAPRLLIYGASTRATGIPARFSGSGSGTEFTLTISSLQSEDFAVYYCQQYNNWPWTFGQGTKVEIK
notes: as for B2
As for B15, the binding result is reported as “binds”.

B16: SEQ ID NO 8 (antibody, V domains shown)
VH: EVQLVESGGGLVQPGGSLRLSCAASGFTFADYAMHWVRQAPGKGLEWVSGISWNSGSIGYADSVKGRFTISRDNAKNSLYLQMNSLRAEDTALYYCAKDSRGYGDYSRGGAYWGQGTLVTVSS
VL: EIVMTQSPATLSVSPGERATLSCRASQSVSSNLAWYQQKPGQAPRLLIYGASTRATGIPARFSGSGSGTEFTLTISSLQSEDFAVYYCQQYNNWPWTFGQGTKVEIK
notes: as for B2
As for B16, the binding result is given as “binds”.

B17: SEQ ID NO 7 (antibody, V domains shown)
VH: EVQLVESGGGLVQPGRSLRLSCAASGFTFNNYAMHWVRQAPGKGLEWVSGISWNSGSIGYADSVKGRFTISRDNAKNSLYLQMNSLRGEDTALYYCAKDSRGYGDYSRGGAYWGQGTLVTVSS
VL: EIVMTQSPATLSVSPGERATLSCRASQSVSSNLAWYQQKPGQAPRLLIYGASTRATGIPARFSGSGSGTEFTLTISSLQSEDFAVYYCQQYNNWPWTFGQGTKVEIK
notes: as for B2
Consider B17, for which the binding result is given as “binds”.

The values are drawn from patent publication US20250179180A1 (TENEOBIO, published 2025).
